± gives the uncertainty stated by the source.
Test: protein stability index of a GFP-peptide fusion (yeast GPS) (PSI 1-4); higher = more stable; sorted into four equal gates, so the index is relative within each strain
Outline: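 The protein stability index of a peptide was calculated by multiplying its read frequency in each gate by that gate's number and adding the products. The peptides were tiled 17-residue stretches of yeast proteins, fused downstream of GFP on a Cherry-expressing plasmid and carried in yeast as a pooled library. Mid-log cultures in leucine-free medium were sorted into four equal gates by GFP/Cherry ratio, and each gate's plasmids were PCR-amplified and Illumina-sequenced.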

Row | Sequence | protein stability index (doa10∆) | protein stability index (pdr5∆) | protein stability index (san1∆) | protein stability index (ubr1∆)
1 | LSQLCAVPLQIVSPQSN [RPO21] | 1.88 ± 0.063 | 1.91 ± 0.058 | 1.9 ± 0.084 | 1.87 ± 0.04
2 | FNTLVRIMSTRCMMAAQ [DIS3] | 1.53 ± 0.07 | 1.73 ± 0.058 | 1.61 ± 0.076 | 1.58 ± 0.036
3 | RTIANQDHFHRLNYLYQ [RPR2] | 2.64 ± 0.062 | 2.88 ± 0.043 | 2.73 ± 0.034 | 2.58 ± 0.026
4 | NGCSGADVKGVCTEAGM [RPT6] | 3.15 ± 0.18 | 3.7 ± 0.16 | 3.25 ± 0.11 | 3.1 ± 0.11
5 | DSVAAIGIPVNKASLAQ [QCR2] | 2.63 ± 0.056 | 2.61 ± 0.052 | 2.52 ± 0.081 | 2.82 ± 0.042
6 | IQRFFALHYLVPFIIAA [COB] | 1.39 ± 0.052 | 1.17 ± 0.063 | 1.11 ± 0.15 | 1.09 ± 0.036
7 | GKRHIFDVNTLCLMTWK [CDC53] | 1.25 ± 0.061 | 1.75 ± 0.066 | 1.44 ± 0.14 | 2.08 ± 0.085
8 | SIPPATIETFNEAALVV [RPB5] | 3.09 ± 0.18 | 2.46 ± 0.15 | 2.02 ± 0.11 | 3.15 ± 0.13
9 | LNLQFKAKVDDLVLGKP [YLR335W/NUP2] | 2.85 ± 0.11 | 3.39 ± 0.18 | 3.34 ± 0.067 | 3.3 ± 0.078
10 | NQFLKIKKKRKELFEKT [SMC1] | 3.06 ± 0.15 | 3 ± 0.11 | 2.96 ± 0.12 | 3.29 ± 0.16
11 | FLRPTYPDLCSIYDKWT [RPN1] | 2.83 ± 0.064 | 2.82 ± 0.059 | 2.35 ± 0.069 | 2.47 ± 0.046
12 | ILECDLLICIGTSLKVA [SIR2] | 2.05 ± 0.081 | 1.59 ± 0.061 | 2.14 ± 0.15 | 1.73 ± 0.05
13 | HISKIIGLDTQQVEGKL [RPN6] | 2.95 ± 0.071 | 3.43 ± 0.093 | 2.9 ± 0.065 | 2.86 ± 0.059
14 | KGDINPEVSMIRDIREK [RPB2] | 3.29 ± 0.16 | 2.36 ± 0.082 | 3.4 ± 0.075 | 2.68 ± 0.13
15 | DFKNEESLSEEHASLLV [MED8] | 3.35 ± 0.11 | 3.12 ± 0.16 | 3.08 ± 0.06 | 3.26 ± 0.063
16 | QKGITSYAVSPYAQKPL [QCR8] | 2.92 ± 0.13 | 3.05 ± 0.14 | 2.92 ± 0.063 | 3.13 ± 0.089
17 | IDLLWKGKTPKNAAESS [PRP28] | 2.86 ± 0.17 | 3.12 ± 0.18 | 2.91 ± 0.15 | 3.14 ± 0.13
18 | PQMQCALQNLSQLPITP [YGL172W/NUP49] | 2.06 ± 0.087 | 2.23 ± 0.098 | 2.12 ± 0.1 | 2.23 ± 0.068
19 | RQREMAEEQTKLQSQSL [YLR018C/POM34] | 3.18 ± 0.045 | 3.28 ± 0.046 | 3.11 ± 0.05 | 3.1 ± 0.036
20 | DKDVKAKYETSILEHSG [FAS2] | 3.36 ± 0.058 | 3.33 ± 0.065 | 3.23 ± 0.052 | 3.37 ± 0.064
21 | VSTAKFSGKYLKYLTKK [RPL22A] | 3.17 ± 0.12 | 3.29 ± 0.11 | 3.41 ± 0.2 | 3.26 ± 0.12
22 | NPYNTRSNKIKVVKTPG [RPL34A] | 1.98 ± 0.065 | 1.93 ± 0.045 | 2.16 ± 0.08 | 2.15 ± 0.039
23 | ILEEKTDLHLPKKEYDD [NSL1] | 1.76 ± 0.057 | 2.39 ± 0.12 | 2.21 ± 0.12 | 2.66 ± 0.061

Row | Sequence | protein stability index (doa10∆) | protein stability index (pdr5∆) | protein stability index (san1∆) | protein stability index (ubr1∆)
24 | DEGMESIEMEEETDDED [RRI2] |  |  | 3.26 ± 0.18 | 3.35 ± 0.14
25 | RERIKRGAHVEKTMVKK [PRP8] |  |  |  | 2.78 ± 0.18
26 | KGSRQCRVCSSHTGLIR [RPS29A] | 2.73 ± 0.06 | 2.93 ± 0.049 | 2.62 ± 0.055 | 2.9 ± 0.043
27 | DPLLSLYNFLHKYVLTL [RGR1] | 2.5 ± 0.043 | 2.12 ± 0.07 | 2.49 ± 0.05 | 2.12 ± 0.046
28 | RSTDRDRVKVIECFKPG [CSL4] | 3.14 ± 0.14 | 3.1 ± 0.2 | 3.26 ± 0.1 | 2.99 ± 0.088
29 | KIKAILESVGIEIEDEK [RPP2A] | 2.75 ± 0.084 | 3.3 ± 0.11 | 2.8 ± 0.11 | 2.99 ± 0.13
30 | RFPTKFVTQFRHLRRTG [RET1] | 1.41 ± 0.078 | 1.73 ± 0.14 |  | 2.17 ± 0.068
31 | TDSRTGQSTILVGSEIY [CDC53] | 2.77 ± 0.056 | 2.64 ± 0.066 | 2.94 ± 0.051 | 2.87 ± 0.065
32 | KPGRMPFNFTVTLFQMA [CDC53] | 1.65 ± 0.039 | 1.99 ± 0.043 | 2.17 ± 0.08 | 2.05 ± 0.051
33 | MKTQRFVSNMGFDIQKS [SIR4] | 2.63 ± 0.069 | 2.24 ± 0.058 | 2.5 ± 0.083 | 2.01 ± 0.04
34 | VPSTTNVNMTVNTMGTG [MED6] | 3.23 ± 0.3 | 3.37 ± 0.11 | 2.91 ± 0.17 | 2.61 ± 0.13
35 | THNFKLSGVSNSMDMVD [RGR1] | 3.09 ± 0.068 | 3 ± 0.074 | 2.93 ± 0.06 | 3.08 ± 0.062
36 | RRRSSTNKSKRPSITEA [MED1] | 3.02 ± 0.09 | 3.15 ± 0.061 | 2.87 ± 0.08 | 3.04 ± 0.077
37 | DWFTYSYFYRRIHVNPS [BRR2] | 1.86 ± 0.047 | 1.28 ± 0.038 | 1.53 ± 0.057 | 1.52 ± 0.029
38 | LRLLLLLIEFPYLPKHY [YJR042W/NUP85] | 1.81 ± 0.052 | 1.72 ± 0.054 | 1.55 ± 0.062 | 1.76 ± 0.047
39 | AAANNNIKPVEQHHINN [GAL11] | 2.97 ± 0.095 | 2.67 ± 0.066 | 2.72 ± 0.077 | 2.96 ± 0.062
40 | WGYQMVWAPTQKCFKLT [POP1] | 2.59 ± 0.069 | 2.62 ± 0.068 | 2.57 ± 0.069 | 2.66 ± 0.067
41 | HFSKDDYSPESKGFVEN [RPO21] | 2.88 ± 0.17 | 2.28 ± 0.17 |  | 
42 | RNETSVDEEDENGTHND [YCG1] | 3.08 ± 0.26 |  |  | 
43 | LLPTIKRTICKKCHRLL [RPR2] | 2.32 ± 0.065 | 2.36 ± 0.054 | 2.26 ± 0.11 | 2.34 ± 0.034
44 | AKVNRPAKIVNFEKPKN [RPN5] | 2.93 ± 0.069 | 3.12 ± 0.069 | 2.89 ± 0.056 | 3.12 ± 0.054
45 | GSCTRQLAGKSGEDTNV [YOR098C/NUP1] | 3.38 ± 0.2 | 3.51 ± 0.15 | 3.34 ± 0.12 | 3.17 ± 0.082
